Assay results as given in patent publication US20080214461.

Tests used:
[1] = target: activated factor VIII (FVIIIa): Recombinate Antihemophilic Factor activated with thrombin (UniProt P00451)
factor X (FX) = factor X (FX) (UniProt P00742)
Sequence of UniProt P00742 (P00742 41-488): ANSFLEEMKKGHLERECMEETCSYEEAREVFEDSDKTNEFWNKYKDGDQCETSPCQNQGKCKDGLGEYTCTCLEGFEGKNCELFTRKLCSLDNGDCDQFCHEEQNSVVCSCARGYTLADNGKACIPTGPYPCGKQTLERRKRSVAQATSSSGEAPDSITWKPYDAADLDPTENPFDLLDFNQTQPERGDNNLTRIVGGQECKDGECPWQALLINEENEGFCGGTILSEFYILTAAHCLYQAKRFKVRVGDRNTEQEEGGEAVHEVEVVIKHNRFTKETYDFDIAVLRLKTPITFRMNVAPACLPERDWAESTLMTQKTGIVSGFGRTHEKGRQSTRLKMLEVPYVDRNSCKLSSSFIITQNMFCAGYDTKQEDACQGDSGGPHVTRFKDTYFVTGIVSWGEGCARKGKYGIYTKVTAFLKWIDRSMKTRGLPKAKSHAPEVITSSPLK

Sequence of plasma derived FIX (pdFIX), activated form pdFIXa (chain): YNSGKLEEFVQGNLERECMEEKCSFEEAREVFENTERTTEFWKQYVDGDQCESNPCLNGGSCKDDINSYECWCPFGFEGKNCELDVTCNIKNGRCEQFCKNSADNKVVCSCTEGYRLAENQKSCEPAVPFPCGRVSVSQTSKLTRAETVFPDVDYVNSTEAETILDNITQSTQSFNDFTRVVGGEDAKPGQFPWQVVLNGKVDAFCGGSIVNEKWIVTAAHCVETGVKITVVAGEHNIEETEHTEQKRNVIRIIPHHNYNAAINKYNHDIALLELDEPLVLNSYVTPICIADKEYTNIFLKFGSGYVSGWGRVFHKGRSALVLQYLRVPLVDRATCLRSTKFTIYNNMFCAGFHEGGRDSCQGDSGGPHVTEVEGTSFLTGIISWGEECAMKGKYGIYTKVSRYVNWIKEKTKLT
Sequence of FIX wild type (recombinant, full length, HEK 293), activated form (chain): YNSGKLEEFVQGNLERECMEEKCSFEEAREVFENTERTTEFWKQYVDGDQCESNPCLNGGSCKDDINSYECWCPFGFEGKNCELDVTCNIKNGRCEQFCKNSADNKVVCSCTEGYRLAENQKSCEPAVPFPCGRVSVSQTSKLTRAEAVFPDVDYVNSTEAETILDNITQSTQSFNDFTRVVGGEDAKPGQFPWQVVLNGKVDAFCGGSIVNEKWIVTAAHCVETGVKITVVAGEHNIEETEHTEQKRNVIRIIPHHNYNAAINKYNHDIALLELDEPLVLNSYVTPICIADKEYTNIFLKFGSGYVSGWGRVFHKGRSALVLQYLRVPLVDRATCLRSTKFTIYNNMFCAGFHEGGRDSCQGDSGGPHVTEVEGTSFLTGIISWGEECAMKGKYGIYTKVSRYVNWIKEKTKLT
Sequence of UniProt P00451 (P00451 other isoform, or with tags, fused parts or gaps): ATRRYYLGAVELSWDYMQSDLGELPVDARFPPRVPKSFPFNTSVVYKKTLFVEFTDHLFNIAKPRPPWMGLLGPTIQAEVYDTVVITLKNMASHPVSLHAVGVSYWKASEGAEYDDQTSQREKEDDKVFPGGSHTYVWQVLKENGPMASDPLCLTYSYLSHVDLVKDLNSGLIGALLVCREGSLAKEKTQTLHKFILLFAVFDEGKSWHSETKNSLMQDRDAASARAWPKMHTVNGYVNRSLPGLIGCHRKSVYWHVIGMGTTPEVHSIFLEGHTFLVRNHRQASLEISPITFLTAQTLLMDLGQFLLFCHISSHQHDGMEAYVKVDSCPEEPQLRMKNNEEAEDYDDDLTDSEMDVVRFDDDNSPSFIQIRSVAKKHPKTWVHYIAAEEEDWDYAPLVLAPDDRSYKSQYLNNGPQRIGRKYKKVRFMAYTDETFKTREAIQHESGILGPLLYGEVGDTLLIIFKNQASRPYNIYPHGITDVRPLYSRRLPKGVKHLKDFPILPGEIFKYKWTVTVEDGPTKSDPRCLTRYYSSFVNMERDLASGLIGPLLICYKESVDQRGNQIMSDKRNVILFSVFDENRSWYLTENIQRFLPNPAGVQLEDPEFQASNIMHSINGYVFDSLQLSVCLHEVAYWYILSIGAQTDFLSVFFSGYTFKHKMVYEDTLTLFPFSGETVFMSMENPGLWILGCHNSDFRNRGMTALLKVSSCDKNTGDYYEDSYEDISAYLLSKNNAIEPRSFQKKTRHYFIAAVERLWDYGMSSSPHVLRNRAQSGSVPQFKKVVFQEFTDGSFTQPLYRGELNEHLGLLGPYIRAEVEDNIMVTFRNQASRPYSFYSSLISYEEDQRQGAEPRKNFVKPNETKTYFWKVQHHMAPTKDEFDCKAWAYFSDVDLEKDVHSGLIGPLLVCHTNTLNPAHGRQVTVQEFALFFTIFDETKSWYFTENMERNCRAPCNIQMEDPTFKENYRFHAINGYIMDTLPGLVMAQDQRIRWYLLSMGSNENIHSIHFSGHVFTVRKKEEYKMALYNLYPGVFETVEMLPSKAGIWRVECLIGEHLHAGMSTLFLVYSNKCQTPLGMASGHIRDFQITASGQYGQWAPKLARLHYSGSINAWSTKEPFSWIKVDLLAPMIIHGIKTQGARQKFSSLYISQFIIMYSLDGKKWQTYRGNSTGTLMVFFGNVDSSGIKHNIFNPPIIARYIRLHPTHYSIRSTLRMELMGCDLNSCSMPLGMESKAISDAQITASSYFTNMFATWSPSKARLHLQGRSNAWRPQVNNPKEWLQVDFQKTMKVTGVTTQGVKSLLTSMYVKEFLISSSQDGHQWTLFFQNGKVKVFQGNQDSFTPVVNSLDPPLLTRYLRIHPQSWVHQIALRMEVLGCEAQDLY

For “FIX wild type (recombinant, full length, HEK 293), activated form”, the “ratio kcat/KM +/- FVIIIa (FX activation)” value [1] was 36,695, the KM (nM), FX activation with FVIIIa (factor X (FX)) was 11 nM and the KM (nM), FX activation without FVIIIa (factor X (FX)) was 68 nM. It also gave a kcat (10^-3 min^-1), FX activation without FVIIIa (factor X (FX)) of 0.000283 s⁻¹, a kcat (min^-1), FX activation with FVIIIa (factor X (FX)) of 102 min⁻¹ and a kcat/KM (10^-6 nM^-1 min^-1), FX activation without FVIIIa (factor X (FX)) of 4200 M⁻¹ s⁻¹. For the same substance, the kcat/KM (nM^-1 min^-1), FX activation with FVIIIa (factor X (FX)) was 1.5e+08 M⁻¹ s⁻¹ and the “rate of FX activation against pdFIXa” value (factor X (FX)) was “FIX-WT and FIX-Y94F/K98T/Y177F activated FX at the same rate as pdFIXa”.
“plasma derived FIX (pdFIX), activated form pdFIXa” was tested, and the “ratio kcat/KM +/- FVIIIa (FX activation)” value [1] was 52,430, the KM (nM), FX activation with FVIIIa (factor X (FX)) was 13 nM and the KM (nM), FX activation without FVIIIa (factor X (FX)) was 65 nM. The kcat (10^-3 min^-1), FX activation without FVIIIa (factor X (FX)) was 0.000217 s⁻¹, the kcat (min^-1), FX activation with FVIIIa (factor X (FX)) was 131 min⁻¹ and the kcat/KM (10^-6 nM^-1 min^-1), FX activation without FVIIIa (factor X (FX)) was 3250 M⁻¹ s⁻¹. For the same substance, the kcat/KM (nM^-1 min^-1), FX activation with FVIIIa (factor X (FX)) was 1.67e+08 M⁻¹ s⁻¹.
